# Results: PMC3607249
# Target: Sulfolobus islandicus Orc1-1 Walker B mutant E147A (ATP-bound) (Sulfolobus islandicus)
# Experiment: AUC
substance,measurement,value
Sulfolobus islandicus Orc1-1 Walker B mutant E147A (ATP-bound) (natural protein),stoichiometry N,2
